Measurements: paper PMC9418484 (The Journal of Experimental Medicine, 2022)
Read-outs that look alike come from different tables or passages of the source.

B1: AZ229 (antibody, V domains shown)
VH: EVQLVESGGGLVQPGGSLRLSCAASGFTFSSDDMHWVRQATGKGLEWVSAIGTSGDTYYSESVKGRFTISRDNAKSSLYLQMNSLRAGDTAVYYCARGRVYDGPTSDRHYYYYVMDLWGHGTTVAVSS
VL: DIQMTQSPSSLSASVGDRVTITCRASQSINKYLNWYQQKPGKAPKLLIYAASSLQGGVPSRFSGSGSGTDFTLTITTLQPEDFATYYCQQSYSAPPWTFAQGTKVEIK
B2: AZ090 IgG (antibody, V domains shown)
VH: QVQLVQSGPEVKKPGTSVKVSCKASQFTFSISAVQWVRQARGQRLEWMGWIVVGSGNTDYAQRFQERVTISRDMSAGTVYMELRSLRSEDTAVYYCAAPYCNKTNCRDGFDMWGQGTMVTVSS
VL: EIVLTQSPGTLSLSPGERATLSCRASQSVSSSYLAWYQQKPGQAPRLLIYGASRRATGIPDRFSGSASGTDFILTISRLEPEDFAVYYCQQYRNSPWTFGQGTKVEIK
B3: C105 (antibody, V domains shown)
VH: QVQLVESGGGLIQPGGSLRLSCAASGFTVSSNYMSWVRQAPGKGLEWVSVIYSGGSTYYADSVKGRFTISRDNSKNTLYLQMNSLRAEDTAVYYCARGEGWELPYDYWGQGTLVTVSS
VL: QSALTQPPSASGSPGQSVTISCTGTSSDVGGYKYVSWYQQHPGKAPKLMIYEVSKRPSGVPDRFSGSKSGNTASLTVSGLQAEDEADYYCSSYEGSNNFVVFGGGTKLTVL

Columns and labels:
[1] = biological target: T1, SARS-CoV-2 Wuhan-Hu-1 receptor-binding domain (RBD), S protein residues 319-539 (SARS-CoV-2 Wuhan-Hu-1, UniProt P0DTC2)
[2] = biological target: T1, SARS-CoV-2 Wuhan-Hu-1 receptor-binding …; test: BLI; settings: both partners purified

| Binder | binding result [1] | binding result [2] |
| --- | --- | --- |
| B1 | binds |  |
| B2 |  | binds |
| B3 |  | binds |
